We go through 50 sequences from the supplement of paper PMC9112550, “Optimization of the antimicrobial peptide Bac7 by deep mutational scanning” (BMC Biology, 2022).

The subject of this data set is Escherichia coli TOP10. The data set can be described thus: shrunken log2 fold change of peptide-encoding DNA abundance (4.5 h post-induction vs induction); higher = less antimicrobial activity (less host growth inhibition). To be noted: time post-induction: 4.5 h; library: site-saturation at positions 5, 18, 19, 20.
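Further: peptides expressed intracellularly from a pBAD plasmid library in pooled LB shake-flask culture, induced with 0.3% L-arabinose, DNA abundance read by NGS, three biological replicates, DESeq2 with apeglm shrinkage.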

For RRIRSRPPRLPRPRPRPKCYPRP, the “shrunken log2 fold change” value was -0.16.

Take RRIRQRPPRLPRPRPRPALHPRP: the “shrunken log2 fold change” value worked out at 1.38.

Take RRIRPRPPRLPRPRPRPLQIPRP: the “shrunken log2 fold change” value is -0.161.

As to RRIRFRPPRLPRPRPRPWIQPRP, the “shrunken log2 fold change” value is -0.997.

On to RRIRNRPPRLPRPRPRPMMHPRP, for which the “shrunken log2 fold change” value is -0.25.

As for RRIRERPPRLPRPRPRPCCSPRP, the “shrunken log2 fold change” value was -0.52.

For RRIRHRPPRLPRPRPRPCFDPRP, the “shrunken log2 fold change” value was -0.00612.

On to RRIRIRPPRLPRPRPRPYENPRP, for which the “shrunken log2 fold change” value was -0.255.

For RRIRSRPPRLPRPRPRPAQQPRP, the “shrunken log2 fold change” value worked out at 0.409.

On to RRIRKRPPRLPRPRPRPFASPRP, for which the “shrunken log2 fold change” value worked out at 0.193.

As to RRIRPRPPRLPRPRPRPAMEPRP, the “shrunken log2 fold change” value came to 0.226.

Turning to RRIRCRPPRLPRPRPRPKEDPRP, the “shrunken log2 fold change” value was found to be 0.166.

On to RRIRMRPPRLPRPRPRPTGRPRP, for which the “shrunken log2 fold change” value is 1.24.

On to RRIRHRPPRLPRPRPRPVPWPRP, for which the “shrunken log2 fold change” value was 0.0803.

As for RRIRFRPPRLPRPRPRPYALPRP, the “shrunken log2 fold change” value was -0.0591.

Consider RRIRNRPPRLPRPRPRPKPHPRP, for which the “shrunken log2 fold change” value is 0.174.

Turning to RRIRDRPPRLPRPRPRPTTGPRP, the “shrunken log2 fold change” value stood at 0.673.

For the sequence RRIRCRPPRLPRPRPRPWSAPRP, the “shrunken log2 fold change” value was -0.308.

On to RRIRWRPPRLPRPRPRPKFDPRP, for which the “shrunken log2 fold change” value is -0.0572.

On to RRIRLRPPRLPRPRPRPVLEPRP, for which the “shrunken log2 fold change” value was -0.335.

Consider RRIRGRPPRLPRPRPRPAGSPRP, for which the “shrunken log2 fold change” value was 1.06.

For RRIRYRPPRLPRPRPRPQTGPRP, the “shrunken log2 fold change” value was -0.288.

In the case of RRIRNRPPRLPRPRPRPLDIPRP, the “shrunken log2 fold change” value is 0.0164.

Turning to RRIRTRPPRLPRPRPRPPIRPRP, the “shrunken log2 fold change” value was -0.1.

In the case of RRIRFRPPRLPRPRPRPENTPRP, the “shrunken log2 fold change” value was found to be 0.003.

For RRIRCRPPRLPRPRPRPSMMPRP, the “shrunken log2 fold change” value was -0.307.

Consider RRIRCRPPRLPRPRPRPNNCPRP, for which the “shrunken log2 fold change” value is -0.636.

On to RRIRMRPPRLPRPRPRPDHLPRP, for which the “shrunken log2 fold change” value was -0.0674.

Consider RRIRPRPPRLPRPRPRPHKSPRP, for which the “shrunken log2 fold change” value is -0.283.

For the sequence RRIRIRPPRLPRPRPRPNIEPRP, the “shrunken log2 fold change” value is -0.0607.

Turning to RRIRHRPPRLPRPRPRPVNNPRP, the “shrunken log2 fold change” value was -1.17.

Consider RRIRQRPPRLPRPRPRPKHVPRP, for which the “shrunken log2 fold change” value is -0.067.

Regarding RRIRLRPPRLPRPRPRPERYPRP, the “shrunken log2 fold change” value was -0.0429.

As to RRIRYRPPRLPRPRPRPQRFPRP, the “shrunken log2 fold change” value was -0.0259.

As for RRIRTRPPRLPRPRPRPQLGPRP, the “shrunken log2 fold change” value is -0.0516.

As to RRIRQRPPRLPRPRPRPADYPRP, the “shrunken log2 fold change” value is -0.155.

With RRIRWRPPRLPRPRPRPVPTPRP, the “shrunken log2 fold change” value came to 0.544.

As for RRIRLRPPRLPRPRPRPYMNPRP, the “shrunken log2 fold change” value was -1.06.

Regarding RRIRERPPRLPRPRPRPRRPPRP, the “shrunken log2 fold change” value amounted to 0.27.

As for RRIRERPPRLPRPRPRPKWDPRP, the “shrunken log2 fold change” value is 0.953.

For the sequence RRIRSRPPRLPRPRPRPMIEPRP, the “shrunken log2 fold change” value is -0.0828.

On to RRIRQRPPRLPRPRPRPLAGPRP, for which the “shrunken log2 fold change” value turned out to be 0.166.

For the sequence RRIRVRPPRLPRPRPRPINAPRP, the “shrunken log2 fold change” value was -0.174.

Consider RRIRFRPPRLPRPRPRPPGCPRP, for which the “shrunken log2 fold change” value came to 0.453.

Regarding RRIRWRPPRLPRPRPRPHQWPRP, the “shrunken log2 fold change” value is -0.0271.

With RRIRNRPPRLPRPRPRPAFRPRP, the “shrunken log2 fold change” value amounted to 0.0513.

On to RRIRIRPPRLPRPRPRPIWAPRP, for which the “shrunken log2 fold change” value was -0.234.

Regarding RRIRIRPPRLPRPRPRPSRCPRP, the “shrunken log2 fold change” value is -0.174.

Take RRIRMRPPRLPRPRPRPKDAPRP: the “shrunken log2 fold change” value was 2.02.

In the case of RRIRPRPPRLPRPRPRPQCTPRP, the “shrunken log2 fold change” value is -0.0867.
